B1: CTF1: COUP-TF1 (NR2F1), cDNA driver (protein, UniProt P10589 1-423, looked up)
COUP transcription factor 1: MAMVVSSWRDPQDDVAGGNPGGPNPAAQAARGGGGGAGEQQQQAGSGAPHTPQTPGQPGAPATPGTAGDKGQGPPGSGQSQQHIECVVCGDKSSGKHYGQFTCEGCKSFFKRSVRRNLTYTCRANRNCPIDQHHRNQCQYCRLKKCLKVGMRREAVQRGRMPPTQPNPGQYALTNGDPLNGHCYLSGYISLLLRAEPYPTSRYGSQCMQPNNIMGIENICELAARLLFSAVEWARNIPFFPDLQITDQVSLLRLTWSELFVLNAAQCSMPLHVAPLLAAAGLHASPMSADRVVAFMDHIRIFQEQVEKLKALHVDSAEYSCLKAIVLFTSDACGLSDAAHIESLQEKSQCALEEYVRSQYPNQPSRFGKLLLRLPSLRTVSSSVIEQLFFVRLVGKTPIETLIRDMLLSGSSFNWPYMSIQCS
B2: PR: Progesterone Receptor (NR3C3), cDNA driver (protein, UniProt P06401 1-933, looked up)
Progesterone receptor: MTELKAKGPRAPHVAGGPPSPEVGSPLLCRPAAGPFPGSQTSDTLPEVSAIPISLDGLLFPRPCQGQDPSDEKTQDQQSLSDVEGAYSRAEATRGAGGSSSSPPEKDSGLLDSVLDTLLAPSGPGQSQPSPPACEVTSSWCLFGPELPEDPPAAPATQRVLSPLMSRSGCKVGDSSGTAAAHKVLPRGLSPARQLLLPASESPHWSGAPVKPSPQAAAVEVEEEDGSESEESAGPLLKGKPRALGGAAAGGGAAAVPPGAAAGGVALVPKEDSRFSAPRVALVEQDAPMAPGRSPLATTVMDFIHVPILPLNHALLAARTRQLLEDESYDGGAGAASAFAPPRSSPCASSTPVAVGDFPDCAYPPDAEPKDDAYPLYSDFQPPALKIKEEEEGAEASARSPRSYLVAGANPAAFPDFPLGPPPPLPPRATPSRPGEAAVTAAPASASVSSASSSGSTLECILYKAEGAPPQQGPFAPPPCKAPGASGCLLPRDGLPSTSASAAAAGAAPALYPALGLNGLPQLGYQAAVLKEGLPQVYPPYLNYLRPDSEASQSPQYSFESLPQKICLICGDEASGCHYGVLTCGSCKVFFKRAMEGQHNYLCAGRNDCIVDKIRRKNCPACRLRKCCQAGMVLGGRKFKKFNKVRVVRALDAVALPQPVGVPNESQALSQRFTFSPGQDIQLIPPLINLLMSIEPDVIYAGHDNTKPDTSSSLLTSLNQLGERQLLSVVKWSKSLPGFRNLHIDDQITLIQYSWMSLMVFGLGWRSYKHVSGQMLYFAPDLILNEQRMKESSFYSLCLTMWQIPQEFVKLQVSQEEFLCMKVLLLLNTIPLEGLRSQTQFEEMRSSYIRELIKAIGLRQKGVVSSSQRFYQLTKLLDNLHDLVKQLHLYCLNTFIQSRALSVEFPEMMSEVIAAQLPKILAGMVKPLLFHKK
B3: CTF3: COUP-TF3 (NR2F6), cDNA driver (protein, UniProt P10588 1-404, looked up)
Nuclear receptor subfamily 2 …: MAMVTGGWGGPGGDTNGVDKAGGYPRAAEDDSASPPGAASDAEPGDEERPGLQVDCVVCGDKSSGKHYGVFTCEGCKSFFKRSIRRNLSYTCRSNRDCQIDQHHRNQCQYCRLKKCFRVGMRKEAVQRGRIPHSLPGAVAASSGSPPGSALAAVASGGDLFPGQPVSELIAQLLRAEPYPAAAGRFGAGGGAAGAVLGIDNVCELAARLLFSTVEWARHAPFFPELPVADQVALLRLSWSELFVLNAAQAALPLHTAPLLAAAGLHAAPMAAERAVAFMDQVRAFQEQVDKLGRLQVDSAEYGCLKAIALFTPDACGLSDPAHVESLQEKAQVALTEYVRAQYPSQPQRFGRLLLRLPALRAVPASLISQLFFMRLVGKTPIETLIRDMLLSGSTFNWPYGSGQ
B4: hMR: Mineralocorticoid Receptor (NR3C2, MR), cDNA driver (protein, UniProt P08235 1-984, looked up)
Mineralocorticoid receptor: METKGYHSLPEGLDMERRWGQVSQAVERSSLGPTERTDENNYMEIVNVSCVSGAIPNNSTQGSSKEKQELLPCLQQDNNRPGILTSDIKTELESKELSATVAESMGLYMDSVRDADYSYEQQNQQGSMSPAKIYQNVEQLVKFYKGNGHRPSTLSCVNTPLRSFMSDSGSSVNGGVMRAVVKSPIMCHEKSPSVCSPLNMTSSVCSPAGINSVSSTTASFGSFPVHSPITQGTPLTCSPNVENRGSRSHSPAHASNVGSPLSSPLSSMKSSISSPPSHCSVKSPVSSPNNVTLRSSVSSPANINNSRCSVSSPSNTNNRSTLSSPAASTVGSICSPVNNAFSYTASGTSAGSSTLRDVVPSPDTQEKGAQEVPFPKTEEVESAISNGVTGQLNIVQYIKPEPDGAFSSSCLGGNSKINSDSSFSVPIKQESTKHSCSGTSFKGNPTVNPFPFMDGSYFSFMDDKDYYSLSGILGPPVPGFDGNCEGSGFPVGIKQEPDDGSYYPEASIPSSAIVGVNSGGQSFHYRIGAQGTISLSRSARDQSFQHLSSFPPVNTLVESWKSHGDLSSRRSDGYPVLEYIPENVSSSTLRSVSTGSSRPSKICLVCGDEASGCHYGVVTCGSCKVFFKRAVEGQHNYLCAGRNDCIIDKIRRKNCPACRLQKCLQAGMNLGARKSKKLGKLKGIHEEQPQQQQPPPPPPPPQSPEEGTTYIAPAKEPSVNTALVPQLSTISRALTPSPVMVLENIEPEIVYAGYDSSKPDTAENLLSTLNRLAGKQMIQVVKWAKVLPGFKNLPLEDQITLIQYSWMCLSSFALSWRSYKHTNSQFLYFAPDLVFNEEKMHQSAMYELCQGMHQISLQFVRLQLTFEEYTIMKVLLLLSTIPKDGLKSQAAFEEMRTNYIKELRKMVTKCPNNSGQSWQRFYQLTKLLDSMHDLVSDLLEFCFYTFRESHALKVEFPAMLVEIISDQLPKVESGNAKPLYFHRK
B5: CTF2: COUP-TF2 (NR2F2), cDNA driver (protein, UniProt P24468 1-414, looked up)
COUP transcription factor 2: MAMVVSTWRDPQDEVPGSQGSQASQAPPVPGPPPGAPHTPQTPGQGGPASTPAQTAAGGQGGPGGPGSDKQQQQQHIECVVCGDKSSGKHYGQFTCEGCKSFFKRSVRRNLSYTCRANRNCPIDQHHRNQCQYCRLKKCLKVGMRREAVQRGRMPPTQPTHGQFALTNGDPLNCHSYLSGYISLLLRAEPYPTSRFGSQCMQPNNIMGIENICELAARMLFSAVEWARNIPFFPDLQITDQVALLRLTWSELFVLNAAQCSMPLHVAPLLAAAGLHASPMSADRVVAFMDHIRIFQEQVEKLKALHVDSAEYSCLKAIVLFTSDACGLSDVAHVESLQEKSQCALEEYVRSQYPNQPTRFGKLLLRLPSLRTVSSSVIEQLFFVRLVGKTPIETLIRDMLLSGSSFNWPYMAIQ

system: hCAR promoter; experiment: NHR-promoter luciferase screen, hCAR promoter; type: cell-based, human; conditions: hCAR promoter-luciferase, CV-1 cells, NHR +/- ligand, control = 1.00
Procedure, shortened: (§1)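 CV-1 cells were co-transfected with 50 ng NHR (homodimer or NHR/RXR heterodimer), 100 ng promoter-luciferase construct and 50 ng LacZ. Luciferase was normalized to LacZ and to a no-NHR/no-ligand control.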

Row | Molecule | luciferase activity normalized to lacZ activity and to a control, hCAR
1 | B1 | 0.14
2 | B2 | 1.00
3 | B3 | 0.14
4 | B4 | 0.81
5 | B5 | 0.23

same assay, conditions: hCAR promoter; HR/ligand component

Row | Molecule | Luc. act., normalized to lacZ | Normalized Luc. act., normalized to control
6 | B1 | 4.5 | 0.1
7 | B2 | 31.5 | 1.0
8 | B3 | 4.5 | 0.1
9 | B4 | 25.6 | 0.8
10 | B5 | 7.2 | 0.2

system: mPer1 promoter; experiment: NHR-promoter luciferase screen, mPer1 promoter; type: cell-based, mouse; conditions: Per1 promoter reporter; co-transfected HR, with or without its ligand
Procedure, shortened: as §1

Row | Molecule | Luc. act., normalized to lacZ
11 | B1 | 283.8
12 | B2 | 207.4
13 | B3 | 159.0
14 | B4 | 351.9
15 | B5 | 346.6

same assay, conditions: Per1 promoter reporter; co-transfected HR, with or without its ligand; relative to control

Row | Molecule | Normalized Luc. act., normalized to control
16 | B1 | 2.0
17 | B2 | 1.4
18 | B3 | 1.1
19 | B4 | 2.4
20 | B5 | 2.4

same assay, conditions: mPer1 promoter-luciferase, CV-1 cells, NHR +/- ligand, control = 1.00

Row | Molecule | luciferase activity normalized to lacZ activity and to a control, mPer1
21 | B1 | 1.97
22 | B2 | 1.44
23 | B3 | 1.10
24 | B4 | 2.44
25 | B5 | 2.41

system: mUCP1 promoter; experiment: NHR-promoter luciferase screen, mUCP1 promoter; type: cell-based, mouse; conditions: mUCP1 promoter reporter; co-transfected HR, with or without its ligand
Procedure, shortened: as §1

Row | Molecule | Luc. act., normalized to lacZ
26 | B1 | 1.8
27 | B2 | 5.4
28 | B3 | 1.9
29 | B4 | 2.1
30 | B5 | 1.9

same assay, conditions: mUCP1 promoter reporter; co-transfected HR, with or without its ligand; relative to control

Row | Molecule | Normalized Luc. act., normalized to control
31 | B1 | 0.4
32 | B2 | 1.2
33 | B3 | 0.4
34 | B4 | 0.5
35 | B5 | 0.4

same assay, conditions: mUCP! promoter-luciferase, CV-1 cells, NHR +/- ligand, control = 1.00

Row | Molecule | luciferase activity normalized to lacZ activity and to a control, mUCP!
36 | B1 | 0.41
37 | B2 | 1.21
38 | B3 | 0.42
39 | B4 | 0.48
40 | B5 | 0.43

system: mAgrp promoter; experiment: NHR-promoter luciferase screen, mAgrp promoter; type: cell-based, mouse; conditions: Table 6d; luciferase activity relative to control (control = 1.00)
Procedure, shortened: as §1

Row | Molecule | Results of assays of transcription factor (+/- ligand) with mAgrp
41 | B1 | 0.71
42 | B2 | 1.13
43 | B3 | 0.86
44 | B4 | 0.79
45 | B5 | 1.08

same assay, conditions: mAgrp promoter; HR component with or without ligand

Row | Molecule | Luc. act., normalized to lacZ
46 | B1 | 28.2
47 | B2 | 44.7
48 | B3 | 34.2
49 | B4 | 31.2
50 | B5 | 42.7

same assay, conditions: mAgrp promoter; HR component with or without ligand; relative to control

Row | Molecule | Normalized Luc. act., normalized to control
51 | B1 | 0.7
52 | B2 | 1.1
53 | B3 | 0.9
54 | B4 | 0.8
55 | B5 | 1.1

system: hCYP3A4 promoter; experiment: NHR-promoter luciferase screen, hCYP3A4 promoter; type: cell-based, human; conditions: CYP3A4 promoter; HR/ligand component
Procedure, shortened: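 Luciferase reporter read-out after co-expression in CV-1 cells of V5H6-tagged receptor (alone or with RXR), the promoter construct and LacZ. Values are luciferase/LacZ relative to a control lacking NHR or ligand; orphan receptors tested ligand-free.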

Row | Molecule | Luc. act., normalized to lacZ | Normalized Luc. act., normalized to control
56 | B1 | 2.6 | 0.6
57 | B2 | 6.5 | 1.5
58 | B3 | 6.1 | 1.4
59 | B4 | 2.6 | 0.6
60 | B5 | 2.7 | 0.6

same assay, conditions: transcription factor +/- ligand; control = 1.00

Row | Molecule | hCYP3A4 promoter reporter activity
61 | B1 | 0.59
62 | B2 | 1.47
63 | B3 | 1.37
64 | B4 | 0.58
65 | B5 | 0.61

system: hPPARg1 promoter; experiment: NHR-promoter luciferase screen, hPPARg1 promoter; type: cell-based, human; conditions: PPARG1 promoter; hormone receptor with or without its ligand
Procedure, shortened: as §1

Row | Molecule | Luc. act., normalized to lacZ
66 | B1 | 39.7
67 | B2 | 81.3
68 | B3 | 32.5
69 | B4 | 56.4
70 | B5 | 43.9

same assay, conditions: PPARG1 promoter; hormone receptor with or without its ligand; relative to control

Row | Molecule | Normalized Luc. act., normalized to control
71 | B1 | 0.6
72 | B2 | 1.2
73 | B3 | 0.5
74 | B4 | 0.8
75 | B5 | 0.6

same assay, conditions: Table 6d; luciferase activity relative to control (control = 1.00)

Row | Molecule | Results of assays of transcription factor (+/- ligand) with hPPARg1
76 | B1 | 0.58
77 | B2 | 1.18
78 | B3 | 0.47
79 | B4 | 0.82
80 | B5 | 0.64
